Here are results for 15 sequences from the supplement of paper PMC12764529.

± gives the half width of the 95% confidence interval.

Data set [1] can be described thus: folding stability dG unfold from trypsin proteolysis; higher = more stable. The essentials:
(§1)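 Designed mini-proteins (under 80 residues, no cysteine) in a PA-tagged cDNA display construct were digested with trypsin and chymotrypsin. Each protease was used at 11 concentrations (threefold dilutions) plus a no-protease condition, followed by sequencing. K50 was inferred by Bayesian fitting of sequencing counts, and unfolding free energy was derived against a sequence-predicted unfolded-state K50 and a shared folded-state K50, per protease or combined. Only designs with AlphaFold2 dimer inter-PAE above 15 were kept.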

Data set [2] can be described thus: folding stability dG unfold (combined trypsin and chymotrypsin); higher = more stable. The essentials: as §1
Data set [3] can be described thus: folding stability dG unfold from chymotrypsin proteolysis; higher = more stable. The essentials:
as §1

Regarding “SAGGSAGGSAGGGSVSGSTPLTLPDSPVTRYSYPDSLVTFVPEKGVVITVSGSSTTVALSAGGSAGGSAGGS [r10_559_JUSTAS]”, the “folding stability dG unfold” value in data set [1] stood at 3.45 ± 0.126 kJ/mol; in data set [2] it was 2.74 ± 0.46 kJ/mol; in data set [3] it was 1.84 ± 0.322 kJ/mol.
Consider “SAGGSAGGSAGGGSVTLKRPGGSEVTLPDVTADSTITTLPDGTTVVTIPGTGKTYVVPSSAGGSAGGSAGGS [r10_1035_JUSTAS]”, for which the “folding stability dG unfold” value turned out to be 2.53 ± 0.126 kJ/mol in data set [1], 2.07 ± 0.389 kJ/mol in data set [2] and 0.465 ± 0.837 kJ/mol in data set [3].
The corresponding values for “SAGGSAGGSAGGGWIYMVTIEPKEVKRSPDPGGKGRPTFEFEMDITIIWIRVDPEDLDDSAGGSAGGSAGGS [r10_654_TrROS]” are 11.9 ± 0.544 kJ/mol, 15.7 ± 0.628 kJ/mol and 17.3 ± 0.305 kJ/mol.
On to “SAGGSAGGSAGGGYTLVTVTLRSPTPTEEVVEEKYPPSVPLEEVKAKYEPLGWEVSFDLLSAGGSAGGSAGG [r7_226_JUSTAS]”, for which the “folding stability dG unfold” value in data set [1] was determined as 3.92 ± 0.105 kJ/mol; in data set [2] it was 3.48 ± 0.255 kJ/mol; in data set [3], 1.77 ± 0.544 kJ/mol.
The corresponding values for “SAGGSAGGSAGGHKIDIEWERYEDGMYRVTITIRSNNGPRKIPFWVPPGYETADDILKQISAGGSAGGSAGG [r7_75_TrROS]” are 7.52 ± 0.314 kJ/mol, 7.86 ± 0.753 kJ/mol and 7.15 ± 0.276 kJ/mol.
Regarding “SAGGSAGGSAGGIDFPEKGFVVVVTFPDGSKAEFEVPSDRPLVLNETAGDVTVDEIREKDSAGGSAGGSAGG [r7_542_TrMRF]”, the “folding stability dG unfold” value in data set [1] is 4 ± 0.586 kJ/mol; in data set [2] it was 1.92 ± 0.544 kJ/mol; in data set [3] it was -0.523 ± 0.753 kJ/mol.
In the case of “SAGGSAGGSAGGIEIRGPNGAELKIESDPDWGMVSIEMPGNRQEIQIPIPLPKPDPEDKNSAGGSAGGSAGG [r7_383_TrROS]”, the figures for the “folding stability dG unfold” value in data set [1], in data set [2] and in data set [3] were 3.51 ± 0.159 kJ/mol, 2.37 ± 0.301 kJ/mol and 0.922 ± 0.13 kJ/mol, respectively.
The corresponding values for “SAGGSAGGSAGGIHIPAYEAIDFAKENADNGEPVPIEVHNPGNGKPEEREITPDDLDKISAGGSAGGSAGGS [r10_779_TrROS]” are 1.68 ± 0.163 kJ/mol, 1.9 ± 0.251 kJ/mol and 1.79 ± 0.0669 kJ/mol.
“SAGGSAGGSAGGIKIERDPNYWVIEIEIPIYMPQPDPDGEIKEPKPIAPITITILIPPGGSAGGSAGGSAGG [r7_3_TrROS]”: the “folding stability dG unfold” value in data set [1] was determined as 8.75 ± 0.711 kJ/mol; in data set [2] it was 9.25 ± 0.837 kJ/mol; in data set [3] it was 9.27 ± 0.46 kJ/mol.
The corresponding values for “SAGGSAGGSAGGIPPDVKVKPVATVNLTAEVEVTVLGPEGGPTFTVKVEVKVVFAESTDSAGGSAGGSAGGS [r10_758_TrMRF]” are 6.3 ± 1.55 kJ/mol, 8.82 ± 1.09 kJ/mol and 10.7 ± 1 kJ/mol.
In the case of “SAGGSAGGSAGGITLEEILKLIKDQPPGETRMIRLPGNGYTIQIYYEDNQLEIDIEPVKDSAGGSAGGSAGG [r7_448_TrROS]”, the “folding stability dG unfold” value in data set [1] was determined as 4.43 ± 0.121 kJ/mol; in data set [2] it was 5.92 ± 0.326 kJ/mol; in data set [3] it was 6.59 ± 0.134 kJ/mol.
Regarding “SAGGSAGGSAGGKAKIEMESETIPFKNDDGEKYYIQIMRFEVEVGGKKVTATAISIMPLDSAGGSAGGSAGG [r7_248_TrROS]”, the figures for the “folding stability dG unfold” value in data set [1], in data set [2] and in data set [3] were 9.27 ± 0.92 kJ/mol, 12.5 ± 1.67 kJ/mol and 14.8 ± 0.669 kJ/mol, respectively.
For “SAGGSAGGSAGGKEPKKVKVYLFNENGELIGVFELEVETLEELEEAVRKLGFLAVVEPESAGGSAGGSAGGS [r10_958_TrMRF]”, the “folding stability dG unfold” value stood at 17.3 ± 0.402 kJ/mol in data set [1], 18.4 ± 0.322 kJ/mol in data set [2] and 18.5 ± 0.289 kJ/mol in data set [3].
As for “SAGGSAGGSAGGKEYEVIEVEVNMTIEELKKLFPNVVEIKVEKNENGELKVTIIIKKDKSAGGSAGGSAGGS [r10_764_TrROS_Hall]”, the “folding stability dG unfold” value in data set [1] was determined as 8.04 ± 0.335 kJ/mol; in data set [2], 9.68 ± 0.502 kJ/mol; in data set [3] it was 10.5 ± 0.46 kJ/mol.
As to “SAGGSAGGSAGGKEYKVVEFEVLLEDPEPVKAVALIDPDGPVRVFLGDKVYTFKRDELGSAGGSAGGSAGGS [r10_649_TrMRF]”, the “folding stability dG unfold” value in data set [1] is -0.339 ± 0.297 kJ/mol; in data set [2], 3.21 ± 0.305 kJ/mol; in data set [3] it was 4.74 ± 0.544 kJ/mol.
